In one experiment the target is cMet-Fc fusion protein (Homo sapiens, UniProt P08581). Description: Protein phage ELISA: peptide-displaying phage binding to soluble cMet-Fc versus TRAIL-Fc. To be noted: phage isolate; cMet-Fc vs. TRAIL-Fc. The method, boiled down:
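Plates coated with 0.5 μg/mL cMet-Fc or, as background, TRAIL-Fc, then blocked with 3% BSA in PBST. Peptide-displaying phage bound 2 h at room temperature. Detection with HRP-anti-M13 antibody.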
In general terms: An ELISA detects its analyte on a solid surface through an enzyme-linked reagent.

Experiment [1] deals with T1, 3T3 cells that over-express human cMet (Homo sapiens, UniProt P08581).
T1 construct: expressed in transfected cells; host or cells: 3T3 cells
Description: Whole cell ELISA of peptide-displaying phage. It counts as cell-based. Particulars: phage isolate; 3T3 cells expressing human cMet vs. non-expressing 3T3 cells. The method, boiled down:
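3T3 cells over-expressing human cMet seeded 10^5/well, pelleted and fixed with 0.1% glutaraldehyde 12 min at 37 °C. Blocked peptide-displaying phage bound 1 h at room temperature; after PBST wash, bound phage detected with HRP-conjugated anti-M13 antibody.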

T1 sequence (P08581 25-1390): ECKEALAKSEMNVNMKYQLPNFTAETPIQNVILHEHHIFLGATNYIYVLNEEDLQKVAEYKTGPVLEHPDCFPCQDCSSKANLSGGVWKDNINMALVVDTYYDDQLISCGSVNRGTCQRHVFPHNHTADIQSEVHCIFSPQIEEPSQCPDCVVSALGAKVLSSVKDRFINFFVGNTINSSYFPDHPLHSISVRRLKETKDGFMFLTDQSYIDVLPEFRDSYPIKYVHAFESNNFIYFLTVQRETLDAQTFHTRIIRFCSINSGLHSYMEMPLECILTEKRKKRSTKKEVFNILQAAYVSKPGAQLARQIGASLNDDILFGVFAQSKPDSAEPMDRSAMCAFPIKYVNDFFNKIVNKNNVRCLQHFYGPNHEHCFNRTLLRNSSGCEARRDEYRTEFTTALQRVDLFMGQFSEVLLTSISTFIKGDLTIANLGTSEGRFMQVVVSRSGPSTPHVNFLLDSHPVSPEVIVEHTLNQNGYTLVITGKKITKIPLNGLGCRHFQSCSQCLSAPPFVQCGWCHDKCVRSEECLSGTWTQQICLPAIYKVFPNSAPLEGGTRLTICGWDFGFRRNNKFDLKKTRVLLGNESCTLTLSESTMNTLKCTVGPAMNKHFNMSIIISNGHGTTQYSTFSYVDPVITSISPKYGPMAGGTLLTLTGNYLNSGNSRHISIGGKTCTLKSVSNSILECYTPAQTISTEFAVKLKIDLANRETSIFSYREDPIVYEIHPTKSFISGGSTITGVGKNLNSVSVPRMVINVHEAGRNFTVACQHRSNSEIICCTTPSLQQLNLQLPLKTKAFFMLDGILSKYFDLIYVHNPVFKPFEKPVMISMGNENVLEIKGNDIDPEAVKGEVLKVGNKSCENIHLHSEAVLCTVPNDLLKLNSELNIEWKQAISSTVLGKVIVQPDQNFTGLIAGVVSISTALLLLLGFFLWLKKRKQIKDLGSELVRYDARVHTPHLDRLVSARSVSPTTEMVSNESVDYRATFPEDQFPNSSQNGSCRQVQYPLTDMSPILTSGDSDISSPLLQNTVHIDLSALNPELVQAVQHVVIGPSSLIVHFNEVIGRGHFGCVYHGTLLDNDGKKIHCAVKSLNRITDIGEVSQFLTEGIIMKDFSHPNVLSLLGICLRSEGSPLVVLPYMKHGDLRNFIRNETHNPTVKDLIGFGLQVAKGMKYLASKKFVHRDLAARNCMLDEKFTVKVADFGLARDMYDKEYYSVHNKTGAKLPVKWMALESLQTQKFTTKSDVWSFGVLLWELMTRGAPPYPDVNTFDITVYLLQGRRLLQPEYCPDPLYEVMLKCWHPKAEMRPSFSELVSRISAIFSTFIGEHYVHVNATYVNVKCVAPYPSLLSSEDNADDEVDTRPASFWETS
cMet-Fc fusion protein, sequence (P08581 25-307 limits assumed): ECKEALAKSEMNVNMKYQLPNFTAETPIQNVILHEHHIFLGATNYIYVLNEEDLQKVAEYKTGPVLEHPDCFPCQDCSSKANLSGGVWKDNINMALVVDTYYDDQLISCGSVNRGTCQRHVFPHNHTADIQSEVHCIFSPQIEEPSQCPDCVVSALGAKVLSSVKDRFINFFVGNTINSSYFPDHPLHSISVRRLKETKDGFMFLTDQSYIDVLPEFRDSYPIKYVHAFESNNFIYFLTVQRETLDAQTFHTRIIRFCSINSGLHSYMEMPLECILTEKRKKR
cMet-Fc fusion protein, sequence (P08581 with tags, fused parts or gaps limits assumed): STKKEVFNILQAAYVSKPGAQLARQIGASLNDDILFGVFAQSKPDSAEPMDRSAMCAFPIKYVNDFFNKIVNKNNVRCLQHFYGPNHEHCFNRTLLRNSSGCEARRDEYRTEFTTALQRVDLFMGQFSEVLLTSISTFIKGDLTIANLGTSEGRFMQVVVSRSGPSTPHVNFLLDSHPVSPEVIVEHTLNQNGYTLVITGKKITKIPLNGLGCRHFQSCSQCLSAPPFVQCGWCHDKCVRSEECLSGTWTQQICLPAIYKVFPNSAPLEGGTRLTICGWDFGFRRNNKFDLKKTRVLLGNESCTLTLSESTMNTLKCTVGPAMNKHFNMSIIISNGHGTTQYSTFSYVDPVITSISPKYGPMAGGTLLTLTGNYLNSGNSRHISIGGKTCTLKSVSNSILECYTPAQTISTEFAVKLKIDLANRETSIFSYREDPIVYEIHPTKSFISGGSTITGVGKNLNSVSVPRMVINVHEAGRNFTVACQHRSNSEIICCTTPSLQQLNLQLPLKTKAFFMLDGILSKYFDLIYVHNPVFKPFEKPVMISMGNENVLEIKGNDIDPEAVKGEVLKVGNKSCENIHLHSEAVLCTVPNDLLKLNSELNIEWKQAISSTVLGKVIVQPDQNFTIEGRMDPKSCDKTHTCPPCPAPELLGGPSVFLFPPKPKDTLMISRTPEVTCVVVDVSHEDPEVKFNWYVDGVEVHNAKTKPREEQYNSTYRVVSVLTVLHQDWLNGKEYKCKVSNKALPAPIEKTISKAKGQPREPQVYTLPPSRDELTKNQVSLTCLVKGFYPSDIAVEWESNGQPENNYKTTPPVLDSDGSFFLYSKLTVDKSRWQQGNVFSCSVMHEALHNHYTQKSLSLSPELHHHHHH

As to “AGNWICNLSEMRCYPKGT (Synthetically generated cMet-binding peptide sequence) [SEQ ID NO: 013]”, in the experiment with cMet-Fc fusion protein, the “Protein ELISA” value amounted to 3.9 fold over background. In experiment [1], the “WC ELISA” value is 1.40 fold over background.
For `CC[C@H](C)[C@H](NC(=O)CNC(=O)[C@H](Cc1ccccc1)NC(=O)[C@H](Cc1c[nH]c2ccccc12)NC(=O)[C@H](CO)NC(=O)CNC(=O)[C@H](Cc1c[nH]c2ccccc12)NC(=O)[C@H](Cc1ccccc1)NC(=O)CNC(=O)[C@H](CC(=O)O)NC(=O)[C@@H](NC(=O)[C@H](Cc1ccccc1)NC(=O)[C@H](Cc1ccc(O)cc1)NC(=O)[C@H](CCC(=O)O)NC(=O)[C@H](CCCNC(=N)N)NC(=O)[C@H](CCC(=O)O)NC(=O)[C@H](Cc1c[nH]c2ccccc12)NC(=O)[C@H](CCC(=O)O)NC(=O)[C@H](CCC(N)=O)NC(=O)[C@H](C)NC(C)=O)C(C)C)C(=O)N1CCC[C@H]1C(=O)N[C@@H](Cc1c[nH]cn1)C(=O)NCC(=O)NCC(=O)NCC(=O)N[C@@H](CCCCNC(=O)c1ccc2c(c1)C(=O)OC21c2ccc(O)cc2Oc2cc(O)ccc21)C(N)=O` [SEQ ID NO: 472], in that order: 3.7 fold over background and 1.80 fold over background.
For `CC[C@H](C)[C@@H]1NC(=O)[C@H](Cc2ccccc2)NC(=O)[C@H](CCC(=O)O)NC(=O)[C@@H](NC(=O)[C@H](Cc2c[nH]cn2)NC(=O)[C@H](Cc2ccccc2)NC(=O)[C@H](CC(=O)O)NC(=O)[C@H](CC(=O)O)NC(=O)CNC(C)=O)CSSC[C@@H](C(=O)N[C@@H](Cc2ccc(O)cc2)C(=O)N[C@@H](Cc2ccccc2)C(=O)N[C@@H](CC(N)=O)C(=O)N[C@@H](CC(=O)O)C(=O)N2CCC[C@H]2C(=O)NCC(=O)NCC(=O)NCC(=O)N[C@@H](CCCCNC(=O)c2ccc3c(c2)C(=O)OC32c3ccc(O)cc3Oc3cc(O)ccc32)C(N)=O)NC(=O)[C@H]([C@@H](C)CC)NC(=O)[C@H](CCC(=O)O)NC(=O)[C@H](CO)NC(=O)[C@H](CCC(N)=O)NC(=O)[C@H](Cc2ccc(O)cc2)NC(=O)[C@H](CC(=O)O)NC(=O)[C@H](CC(=O)O)NC1=O` [SEQ ID NO: 391], in that order: 12.4 fold over background and 1.37 fold over background.
The matching figures for “AGTWHCAGPPWFTCYMDGT (Synthetically generated cMet-binding peptide sequence) [SEQ ID NO: 069]”: 9.0 fold over background and 1.30 fold over background.
As to `CC[C@H](C)[C@H](NC(=O)CNC(=O)[C@H](CCC(N)=O)NC(=O)[C@@H](NC(=O)[C@H](CCC(N)=O)NC(=O)[C@H](C)NC(C)=O)[C@@H](C)CC)C(=O)N[C@@H](CCC(N)=O)C(=O)N[C@@H](CCCCN)C(=O)N[C@H](C(=O)N[C@@H](CCC(=O)O)C(=O)N[C@@H](CCC(N)=O)C(=O)NCC(=O)N[C@@H](CCC(=O)O)C(=O)N[C@@H](Cc1ccccc1)C(=O)N[C@@H](Cc1ccc(O)cc1)C(=O)N[C@@H](Cc1c[nH]c2ccccc12)C(=O)N[C@@H](Cc1ccccc1)C(=O)N[C@@H](CC(N)=O)C(=O)N[C@@H](Cc1c[nH]c2ccccc12)C(=O)N[C@@H](Cc1ccccc1)C(=O)N1CCC[C@H]1C(=O)N[C@@H](C)C(=O)NCC(=O)NCC(=O)NCC(=O)N[C@@H](CCCCNC(=O)c1ccc2c(c1)C(=O)OC21c2ccc(O)cc2Oc2cc(O)ccc21)C(N)=O)[C@@H](C)O` [SEQ ID NO: 450], the “Protein ELISA” value at cMet-Fc fusion protein was found to be 4.3 fold over background. Moreover, in experiment [1], the “WC ELISA” value is listed as 1.10 fold over background.
For “AGLPKCSGPPWFSCYYGGT (Synthetically generated cMet-binding peptide sequence) [SEQ ID NO: 066]”, in that order: 13.5 fold over background and 1.30 fold over background.
For “AGGNWCSFYEELCEWLGT (Synthetically generated cMet-binding peptide sequence) [SEQ ID NO: 043]”, in that order: 4.2 fold over background and 1.37 fold over background.
For “AGNLPCHWNMSVCDHQGT (Synthetically generated cMet-binding peptide sequence) [SEQ ID NO: 034]”, in that order: 3.3 fold over background and 1.30 fold over background.
With “AGSIACTGWPYFSCIDLGT (Synthetically generated cMet-binding peptide sequence) [SEQ ID NO: 088]”, the “Protein ELISA” value with cMet-Fc fusion protein worked out at 5.6 fold over background. Further, in experiment [1], the “WC ELISA” value worked out at 1.10 fold over background.
The matching figures for “GDYRMCQISDMWGNYECSSDDP (Synthetically generated cMet-binding peptide sequence) [SEQ ID NO: 400]”: 6.1 fold over background and 1.30 fold over background.
For the molecule “AGVLQCIGFEWFCDIWGT (Synthetically generated cMet-binding peptide sequence) [SEQ ID NO: 022]”, the “Protein ELISA” value in the experiment with cMet-Fc fusion protein was determined as 3.4 fold over background. Also, in experiment [1], the “WC ELISA” value came out at 1.40 fold over background.
The matching figures for “AGETTCLGWPTFVCVDYGT (Synthetically generated cMet-binding peptide sequence) [SEQ ID NO: 063]”: 5.3 fold over background and 1.27 fold over background.
For “AGTVYCSWESSECWWVGT (Synthetically generated cMet-binding peptide sequence) [SEQ ID NO: 019]”, in that order: 3.9 fold over background and 1.37 fold over background.
Take “AGHFECPKHQYMCDMPGT (Synthetically generated cMet-binding peptide sequence) [SEQ ID NO: 042]”: in the experiment with cMet-Fc fusion protein, the “Protein ELISA” value was found to be 3.1 fold over background. The “WC ELISA” value in experiment [1] was 1.23 fold over background.
The matching figures for `CC[C@H](C)[C@H](NC(=O)[C@H](Cc1c[nH]c2ccccc12)NC(=O)[C@H](CC(N)=O)NC(=O)CNC(=O)[C@H](C)NC(C)=O)C(=O)N[C@H]1CSSC[C@@H](C(=O)N[C@@H](Cc2c[nH]c3ccccc23)C(=O)N[C@@H](Cc2ccc(O)cc2)C(=O)N[C@@H](Cc2c[nH]cn2)C(=O)NCC(=O)N[C@H](C(=O)NCC(=O)NCC(=O)NCC(=O)N[C@@H](CCCCNC(=O)c2ccc3c(c2)C(=O)OC32c3ccc(O)cc3Oc3cc(O)ccc32)C(N)=O)[C@@H](C)O)NC(=O)CNC(=O)[C@H](Cc2ccccc2)NC(=O)[C@H](CO)NC(=O)[C@@H]2CCCN2C(=O)[C@@H]2CCCN2C(=O)CNC(=O)[C@H]([C@@H](C)O)NC1=O` [SEQ ID NO: 078]: 4.7 fold over background and 1.40 fold over background.
The matching figures for “AQNAVVPPPMLWSIYWDYGREG (Synthetically generated cMet-binding peptide sequence) [SEQ ID NO: 457]”: 7.0 fold over background and 1.37 fold over background.
For “AQMGHHWDVQWDYKLFHVARGD (Synthetically generated cMet-binding peptide sequence) [SEQ ID NO: 473]”, in that order: 3.7 fold over background and 1.23 fold over background.
Regarding “GSSHCNQMITPWQNCGMRAP (Synthetically generated cMet-binding peptide sequence) [SEQ ID NO: 374]”, the “Protein ELISA” value with cMet-Fc fusion protein worked out at 3.3 fold over background. In addition, the “WC ELISA” value in experiment [1] came out at 1.37 fold over background.
For the molecule `CC[C@H](C)[C@H](NC(=O)[C@H](CC(=O)O)NC(=O)CNC(=O)[C@H](C)NC(C)=O)C(=O)N[C@H](C(=O)N[C@H]1CSSC[C@@H](C(=O)N[C@@H](Cc2c[nH]c3ccccc23)C(=O)N[C@@H](CO)C(=O)N[C@@H](Cc2c[nH]c3ccccc23)C(=O)NCC(=O)N[C@H](C(=O)NCC(=O)NCC(=O)NCC(=O)N[C@@H](CCCCNC(=O)c2ccc3c(c2)C(=O)OC32c3ccc(O)cc3Oc3cc(O)ccc32)C(N)=O)[C@@H](C)O)NC(=O)[C@H](CCC(=O)O)NC(=O)[C@H](Cc2ccccc2)NC(=O)[C@H](Cc2ccc(O)cc2)NC(=O)[C@@H]2CCCN2C(=O)[C@H](Cc2c[nH]cn2)NC(=O)CNC(=O)[C@H]([C@@H](C)O)NC1=O)C(C)C` [SEQ ID NO: 068], the “Protein ELISA” value on cMet-Fc fusion protein was 6.3 fold over background. In addition, in experiment [1], the “WC ELISA” value is given as 1.33 fold over background.
For `CC[C@H](C)[C@H](NC(=O)[C@H](Cc1c[nH]cn1)NC(=O)[C@H](CC(C)C)NC(=O)[C@@H](NC(=O)[C@H](CCSC)NC(=O)[C@H](CCSC)NC(=O)[C@H](CCC(N)=O)NC(=O)CNC(=O)[C@H](Cc1ccc(O)cc1)NC(=O)[C@H](CCC(N)=O)NC(=O)[C@H](Cc1c[nH]cn1)NC(=O)[C@H](CCC(N)=O)NC(=O)[C@H](C)NC(C)=O)C(C)C)C(=O)N[C@@H](CCC(N)=O)C(=O)N[C@@H](Cc1ccc(O)cc1)C(=O)N[C@@H](CC(=O)O)C(=O)N[C@@H](CCSC)C(=O)NCC(=O)N[C@@H](CCC(=O)O)C(=O)N[C@@H](Cc1ccccc1)C(=O)N[C@H](C(=O)N1CCC[C@H]1C(=O)NCC(=O)NCC(=O)NCC(=O)N[C@@H](CCCCNC(=O)c1ccc2c(c1)C(=O)OC21c2ccc(O)cc2Oc2cc(O)ccc21)C(N)=O)[C@@H](C)CC` [SEQ ID NO: 462], in that order: 4.5 fold over background and 1.27 fold over background.
The matching figures for “AGGFACGPPWDICWMFGT (Synthetically generated cMet-binding peptide sequence) [SEQ ID NO: 011]”: 5.6 fold over background and 1.30 fold over background.
As for “GSYYDCREFQCNKPAP (Synthetically generated cMet-binding peptide sequence) [SEQ ID NO: 002]”, in the experiment with cMet-Fc fusion protein, the “Protein ELISA” value is reported as 4.4 fold over background. In addition, the “WC ELISA” value in experiment [1] was determined as 1.33 fold over background.

The record behind these values is patent US9845340B2, “Peptides that specifically bind HGF receptor (cMet) and uses thereof” (Dyax Corp., priority 2003, dated 2017).
